Data published in patent US20220282217A1 (BIONTECH US, published 2022).

Key:
[1] = molecular target: T1, HLA class I molecule A02.01; test: pMHC-I dissociation half-life, 125I-b2m
T1 construct: Purified MHC class I complex; also called HLA-A02:01
Description: (§1) Briefly, synthetic genes encoding biotinylated MHC-I heavy and light chains are expressed in E. coli and purified from inclusion bodies using standard methods. […] These reactions are carried out in streptavidin coated microplates to bind the biotinylated MHC-I heavy chains to the surface and allow measurement of radiolabeled light chain to monitor complex formation. Dissociation is initiated by addition of higher concentrations of unlabeled light-chain and incubation at 37° C. Stability is defined as the length of time in hours it takes for half of the complexes to dissociate, as measured by scintillation counts.

[2] = molecular target: T1, HLA class I molecule A02.01; test: competition with radiolabeled reference peptide on purified MHC I
Description: (§2) Peptides were incubated at varying concentrations with these complexes for 2 days, and the amount of remaining radiolabeled peptide bound to […] was measured using size exclusion gel-filtration.

HLA-A02.01 [3] = molecular target: T2, HLA-A02.01 (human); test: competition with radiolabeled reference peptide, purified MHC I
T2 construct: Purified class I MHC
Description: as §2

HLA-A03.01 = molecular target: T3, HLA-A03.01 (human); test: as above
T3 construct: Purified class I MHC
Description: as §2

HLA-A02.01 [4] = molecular target: HLA-A02.01 (human); test: pMHC-I complex dissociation at 37 C, 125I-b2m, half-life
Description: as §1

HLA-A02.01 [5] = molecular target: HLA-A02.01 (human); test: competition vs radiolabeled reference peptide on purified MHC I, gel filtration
Description: as §2

| Binder | Stability (T1/2 (h)) [1] | IC50 [2] | other results |
| --- | --- | --- | --- |
| VLHESNSPYI (also called MEK, C121S) | 1.9 h | 131 nM | – |
| LLQEFDVQEA (also called NDRG1: ERG) | 2.5 h | 45 nM | – |
| QQSDLQPPA (also called MYC, E39D) | 0 h | 70 nM | – |
| VRLSSCVPVA (also called TGFBR2(-1)) | – | – | IC50 (HLA-A02.01 [3]): 1210 nM |
| HMNIANLLGA (also called KIT, V654A) | 0 h | 430 nM | – |
| ITTVKATETK (also called SEC63 (+1)) | – | – | IC50 (HLA-A03.01): 1250 nM |
| LQEFDVQEAL (also called NDRG1: ERG) | 0 h | 50300 nM | – |
| KSKKKETFK (also called SEC63 (+1)) | – | – | IC50 (HLA-A03.01): 74.3 nM |
| IIIEYCFYG (also called PDGFRa, T674I) | 1.2 h | 16 nM | – |
| LVRLSSCVPV (also called TGFBR2(-1)) | – | – | IC50 (HLA-A02.01 [3]): 1240 nM |
| FSGEYIPTV (also called RAC1, P29S) | 6.8 h | 3 nM | – |
| IMSLWGLVS (also called NAB: STAT6 (variant 1 of Chmielecki et al.)) | 0 h | 7320 nM | – |
| KSRQNHLQLK (also called SMAP1(-1)) | – | – | IC50 (HLA-A03.01): 4.7 nM |
| WSLKKVPALK (also called SMAP1(-1)) | – | – | IC50 (HLA-A03.01): 94.9 nM |
| YIIIEFMTYG (also called ABL1, T315I) | – | – | Stability (T1/2 (h)) (HLA-A02.01 [4]): 0 h; IC50 (HLA-A02.01 [5]): 186 nM |
| VLLSVHLIV (also called APC, AVEW) | – | – | Stability (T1/2 (h)) (HLA-A02.01 [4]): 11 h; IC50 (HLA-A02.01 [5]): 72 nM |
| LLSTPPLSPS (also called MYC, P57S) | 0 h | 1770 nM | – |
| VMSDTTYKI (also called TTK(-1)) | – | – | IC50 (HLA-A02.01 [3]): 19.6 nM |
| FALCGFWQI (also called SLC35F5(-1)) | – | – | IC50 (HLA-A02.01 [3]): 0.4 nM |
| FELLPIPPL (also called MYC, T58I) | 0 h | 553 nM | – |
| KLMLLRLNLR (also called SEC31A(-1)) | – | – | IC50 (HLA-A03.01): 48.4 nM |

| Binder | Stability (T1/2 (h)) [1] | IC50 [2] | other results |
| --- | --- | --- | --- |
| VIIEYCCYG (also called KIT, T670I) | 0.5 h | 191 nM | – |
| YIIIEYCFYG (also called PDGFRa, T674I) | 0 h | 113 nM | – |
| IIIEFMTYG (also called ABL1, T315I) | – | – | Stability (T1/2 (h)) (HLA-A02.01 [4]): 0 h; IC50 (HLA-A02.01 [5]): 779 nM |
| LMLLRLNLRK (also called SEC31A(-1)) | – | – | IC50 (HLA-A03.01): 6 nM |
| YLTKWPKFFL (also called XPOT(-1)) | – | – | IC50 (HLA-A02.01 [3]): 42.9 nM |
| KSLVRLSSCV (also called TGFBR2(-1)) | – | – | IC50 (HLA-A02.01 [3]): 280 nM |
| ALSASNSCFI (also called FRG1B, L52S) | 0.8 h | 226 nM | – |
| CLADVLLSV (also called APC, AVEW) | – | – | Stability (T1/2 (h)) (HLA-A02.01 [4]): 24 h; IC50 (HLA-A02.01 [5]): 219 nM |
| KLGGGQHGEV (also called ABL1, Y253H) | – | – | Stability (T1/2 (h)) (HLA-A02.01 [4]): 0.4 h; IC50 (HLA-A02.01 [5]): 387 nM |
| QQQSDLQPPA (also called MYC, E39D) | 0 h | 646 nM | – |
| FQNGKMALS (also called FRG1B, L52S) | 0 h | 3280 nM | – |
| RLSSCVPVAL (also called TGFBR2(-1)) | – | – | IC50 (HLA-A02.01 [3]): 54.2 nM |
| TIGGPTLVII (also called KIT, T670I) | 0 h | 10700 nM | – |
| AFSGEYIPTV (also called RAC1, P29S) | 0 h | 781 nM | – |
| IIEFMTYGNL (also called ABL1, T315I) | – | – | Stability (T1/2 (h)) (HLA-A02.01 [4]): 0 h; IC50 (HLA-A02.01 [5]): 9700 nM |
| VMAYVMAGV (also called HER2, G776insYVMA) | 16.5 h | 2 nM | – |
| SLYIVGFYG (also called MEK, P124L) | 0 h | 1060 nM | – |
| QTGVMICAYL (also called PTEN, R130Q) | 0 h | 9760 nM | – |
| TYTCAITTVK (also called SEC63 (+1)) | – | – | IC50 (HLA-A03.01): 2360 nM |
| VLTVTSTDV (also called FGFR3: TACC3) | – | – | Stability (T1/2 (h)) (HLA-A02.01 [4]): 1.1 h; IC50 (HLA-A02.01 [5]): 295 nM |
| LLPIPPLSPS (also called MYC, T58I) | 0 h | – | – |

| Binder | Stability (T1/2 (h)) [1] | IC50 [2] | other results |
| --- | --- | --- | --- |
| MNIANLLGA (also called KIT, V654A) | 0.3 h | 128 nM | – |
| LMELMAGGDL (also called ALK, L1196M) | – | – | Stability (T1/2 (h)) (HLA-A02.01 [4]): 8.9 h; IC50 (HLA-A02.01 [5]): 311 nM |
| FVQGKDWGL (also called SPOP, F133L) | – | – | IC50 (HLA-A02.01 [3]): 34 nM |
| IANLLGACTI (also called KIT, V654A) | 0 h | 6420 nM | – |
| SLVRLSSCV (also called TGFBR2(-1)) | – | – | IC50 (HLA-A02.01 [3]): 29.9 nM |
| MLLRLNLRK (also called SEC31A(-1)) | – | – | IC50 (HLA-A03.01): 1.3 nM |
| SLYIVGFYGA (also called MEK, P124L) | 0.4 h | 390 nM | – |
| KSKKKETFKK (also called SEC63 (+1)) | – | – | IC50 (HLA-A03.01): 39.6 nM |
| KVLQMDFLV (also called APC, VHPA) | – | – | Stability (T1/2 (h)) (HLA-A02.01 [4]): 6.4 h; IC50 (HLA-A02.01 [5]): 11 nM |
| YLGNHMNIAN (also called KIT, V654A) | 0 h | 1340 nM | – |
| ILMELMAGGD (also called ALK, L1196M) | – | – | Stability (T1/2 (h)) (HLA-A02.01 [4]): 0 h; IC50 (HLA-A02.01 [5]): 3450 nM |
| FVMSDTTYKI (also called TTK(-1)) | – | – | IC50 (HLA-A02.01 [3]): 62.4 nM |
| KITEQEKDFL (also called PIK3CA, E542K) | 0 h | 1400 nM | – |
| KKLMLLRLNL (also called SEC31A(-1)) | – | – | IC50 (HLA-A02.01 [3]): 289 nM |
| FILMELMAGG (also called ALK, L1196M) | – | – | Stability (T1/2 (h)) (HLA-A02.01 [4]): 0 h; IC50 (HLA-A02.01 [5]): 1580 nM |
| LQMDFLVHPA (likely a print error; also called APC, VHPA) […] | – | – | Stability (T1/2 (h)) (HLA-A02.01 [4]): 1.5 h; IC50 (HLA-A02.01 [5]): 68 nM |
| IIEYCCYGDL (also called KIT, T670I) | 0 h | 7310 nM | – |
| IIEYCFYGDL (also called PDGFRa, T674I) | 0 h | 1090 nM | – |
| ILMELMAGG (also called ALK, L1196M) | – | – | Stability (T1/2 (h)) (HLA-A02.01 [4]): 0.5 h; IC50 (HLA-A02.01 [5]): 223 nM |
| ALMSAMTTS (also called TGFBR2(-1)) | – | – | IC50 (HLA-A02.01 [3]): 139 nM |
